Experimental data from US20030108545A1.
Values joined by “and” are separate entries in the source; they are usually repeats but may differ in a detail not shown here. Equal values may be shown once. Read-outs that look alike come from different tables or passages of the source.

Tests used:
[1] = biological target: KDR (VEGFR-2) expressed on the surface of HUVEC (human) (UniProt P35968); experiment: cell-based or functional assay
[2] = biological target: soluble fusion protein KDR-AP (KDR (VEGFR-2) extracellular domain fused to human placental alkaline phosphatase) (human) (UniProt P35968); experiment: BIAcore, KDR-AP immobilized
[3] = biological target: soluble fusion protein KDR-AP (KDR (VEGFR-2) extracellular domain fused to human placental alkaline phosphatase) (human) (UniProt P35968); experiment: BIAcore, KDR-AP immobilized; remark: listed apart in the source
[4] = biological target: soluble fusion protein KDR-AP (KDR (VEGFR-2) extracellular domain fused to human placental alkaline phosphatase) (human) (UniProt P35968); experiment: competitive ELISA: KDR-AP binding to immobilized VEGF165
[5] = biological target: soluble fusion protein KDR-AP (KDR (VEGFR-2) extracellular domain fused to human placental alkaline phosphatase) (human) (UniProt P35968); experiment: competitive VEGF blocking ELISA: KDR-AP binding to immobilized VEGF165
[6] = biological target: human KDR (VEGFR-2), immobilized on ELISA plates (construct not stated) (human) (UniProt P35968); experiment: direct binding ELISA on KDR-coated plates (ED50, 50% of maximum binding)
[7] = biological target: human KDR (VEGFR-2), immobilized on ELISA plates (construct not stated) (human) (UniProt P35968); experiment: direct binding ELISA on KDR-coated plates, anti-E tag-HRP detection
[8] = biological target: chimeric receptor mouse flk-1 (VEGFR-2)/human fms on transfected 3T3 cells (C441) (mouse; human) (UniProt P35918); experiment: cell-based or functional assay
[9] = biological target: chimeric receptor mouse flk-1 (VEGFR-2)/human fms on transfected 3T3 cells (C441) (mouse; human) (UniProt P35918); experiment: saturation binding to intact C441 cells, colorimetric detection (FIG. 7)
[10] = scale: % of the fully stimulated receptor control

Chain of soluble fusion protein KDR-AP (KDR (VEGFR-2) extracellular domain fused to human placental alkaline phosphatase) (human) (P35968 other isoform, or with tags, fused parts or gaps): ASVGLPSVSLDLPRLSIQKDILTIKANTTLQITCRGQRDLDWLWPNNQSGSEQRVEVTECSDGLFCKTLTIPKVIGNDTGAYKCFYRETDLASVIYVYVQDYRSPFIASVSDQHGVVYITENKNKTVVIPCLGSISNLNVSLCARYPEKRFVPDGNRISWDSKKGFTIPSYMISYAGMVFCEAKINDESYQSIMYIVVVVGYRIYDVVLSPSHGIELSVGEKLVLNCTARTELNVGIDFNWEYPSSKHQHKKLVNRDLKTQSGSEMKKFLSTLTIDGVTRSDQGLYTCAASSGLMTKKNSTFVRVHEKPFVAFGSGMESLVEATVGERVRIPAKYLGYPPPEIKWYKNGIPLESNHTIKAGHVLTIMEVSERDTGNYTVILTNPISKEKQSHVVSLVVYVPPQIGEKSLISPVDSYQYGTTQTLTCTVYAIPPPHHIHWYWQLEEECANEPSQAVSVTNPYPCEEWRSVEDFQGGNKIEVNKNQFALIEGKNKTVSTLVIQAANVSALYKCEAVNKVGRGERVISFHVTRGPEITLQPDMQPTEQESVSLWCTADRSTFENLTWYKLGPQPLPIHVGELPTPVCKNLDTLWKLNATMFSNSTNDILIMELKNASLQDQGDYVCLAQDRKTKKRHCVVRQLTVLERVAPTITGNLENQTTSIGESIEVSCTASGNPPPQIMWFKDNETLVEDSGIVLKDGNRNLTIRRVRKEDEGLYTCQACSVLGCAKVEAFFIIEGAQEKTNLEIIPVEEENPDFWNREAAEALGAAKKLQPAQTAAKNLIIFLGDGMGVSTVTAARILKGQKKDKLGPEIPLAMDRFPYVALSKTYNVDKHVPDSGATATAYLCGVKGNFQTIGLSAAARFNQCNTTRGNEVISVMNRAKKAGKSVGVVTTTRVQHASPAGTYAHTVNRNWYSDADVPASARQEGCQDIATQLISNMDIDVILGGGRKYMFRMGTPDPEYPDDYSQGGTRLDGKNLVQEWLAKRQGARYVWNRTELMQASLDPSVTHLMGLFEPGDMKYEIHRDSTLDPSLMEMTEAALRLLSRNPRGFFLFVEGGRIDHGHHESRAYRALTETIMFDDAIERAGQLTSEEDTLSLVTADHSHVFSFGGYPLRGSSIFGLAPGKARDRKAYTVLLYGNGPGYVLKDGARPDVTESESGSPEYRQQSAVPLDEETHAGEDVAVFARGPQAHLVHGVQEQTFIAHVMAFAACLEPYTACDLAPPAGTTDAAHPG
Chain of chimeric receptor mouse flk-1 (VEGFR-2)/human fms on transfected 3T3 cells (C441) (mouse; human) (P35918 other isoform, or with tags, fused parts or gaps mutant limits assumed): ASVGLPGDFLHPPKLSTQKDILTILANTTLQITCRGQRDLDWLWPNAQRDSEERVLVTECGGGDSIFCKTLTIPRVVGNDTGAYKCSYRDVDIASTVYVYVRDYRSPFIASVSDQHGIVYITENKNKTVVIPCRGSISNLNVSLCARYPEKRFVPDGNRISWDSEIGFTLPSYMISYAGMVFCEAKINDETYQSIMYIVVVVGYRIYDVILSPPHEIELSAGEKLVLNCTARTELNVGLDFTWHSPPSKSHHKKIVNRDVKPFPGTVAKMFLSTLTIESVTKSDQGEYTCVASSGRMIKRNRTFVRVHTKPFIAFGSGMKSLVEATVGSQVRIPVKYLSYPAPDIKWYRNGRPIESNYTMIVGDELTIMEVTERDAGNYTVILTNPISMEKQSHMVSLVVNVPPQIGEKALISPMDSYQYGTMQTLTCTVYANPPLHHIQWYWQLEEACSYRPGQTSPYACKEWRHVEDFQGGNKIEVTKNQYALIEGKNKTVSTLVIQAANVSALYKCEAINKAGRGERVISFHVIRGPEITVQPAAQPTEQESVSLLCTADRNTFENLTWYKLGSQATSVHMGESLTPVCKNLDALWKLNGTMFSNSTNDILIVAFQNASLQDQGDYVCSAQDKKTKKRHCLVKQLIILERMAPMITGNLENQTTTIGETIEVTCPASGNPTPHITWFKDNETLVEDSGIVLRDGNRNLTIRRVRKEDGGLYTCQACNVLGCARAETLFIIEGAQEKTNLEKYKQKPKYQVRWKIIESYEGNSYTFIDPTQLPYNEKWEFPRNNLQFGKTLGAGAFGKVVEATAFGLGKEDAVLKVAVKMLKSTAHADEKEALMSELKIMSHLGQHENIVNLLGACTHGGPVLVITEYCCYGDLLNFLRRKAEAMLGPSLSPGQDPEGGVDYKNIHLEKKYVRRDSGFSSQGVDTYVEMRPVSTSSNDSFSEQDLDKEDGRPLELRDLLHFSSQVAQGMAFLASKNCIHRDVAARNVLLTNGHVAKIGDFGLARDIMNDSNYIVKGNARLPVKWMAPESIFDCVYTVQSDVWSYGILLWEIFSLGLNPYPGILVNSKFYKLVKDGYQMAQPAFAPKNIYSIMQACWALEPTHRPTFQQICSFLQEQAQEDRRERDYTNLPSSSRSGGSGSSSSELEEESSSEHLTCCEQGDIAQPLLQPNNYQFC
Chain of human KDR (VEGFR-2), immobilized on ELISA plates (construct not stated) (human) (P35968 20-764 limits assumed): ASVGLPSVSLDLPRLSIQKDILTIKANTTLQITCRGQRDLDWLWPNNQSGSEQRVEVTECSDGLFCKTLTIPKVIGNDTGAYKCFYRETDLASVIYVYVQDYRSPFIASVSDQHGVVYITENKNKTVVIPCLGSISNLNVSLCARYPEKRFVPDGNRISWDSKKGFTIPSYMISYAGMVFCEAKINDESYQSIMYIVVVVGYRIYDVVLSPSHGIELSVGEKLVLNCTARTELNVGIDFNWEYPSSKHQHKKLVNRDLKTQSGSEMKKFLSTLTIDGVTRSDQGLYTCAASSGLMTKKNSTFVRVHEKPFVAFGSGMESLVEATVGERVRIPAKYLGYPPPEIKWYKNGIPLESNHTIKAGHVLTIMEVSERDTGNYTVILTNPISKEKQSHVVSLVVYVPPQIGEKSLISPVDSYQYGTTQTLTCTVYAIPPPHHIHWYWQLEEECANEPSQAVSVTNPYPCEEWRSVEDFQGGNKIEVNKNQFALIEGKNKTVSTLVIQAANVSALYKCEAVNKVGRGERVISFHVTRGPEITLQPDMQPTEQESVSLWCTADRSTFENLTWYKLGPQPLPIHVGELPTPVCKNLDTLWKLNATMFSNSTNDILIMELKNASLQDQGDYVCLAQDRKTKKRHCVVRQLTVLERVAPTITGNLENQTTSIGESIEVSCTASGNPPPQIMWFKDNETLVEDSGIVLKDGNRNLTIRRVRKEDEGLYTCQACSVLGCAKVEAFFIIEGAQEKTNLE
Chain of KDR (VEGFR-2) expressed on the surface of HUVEC (human) (P35968 20-1356): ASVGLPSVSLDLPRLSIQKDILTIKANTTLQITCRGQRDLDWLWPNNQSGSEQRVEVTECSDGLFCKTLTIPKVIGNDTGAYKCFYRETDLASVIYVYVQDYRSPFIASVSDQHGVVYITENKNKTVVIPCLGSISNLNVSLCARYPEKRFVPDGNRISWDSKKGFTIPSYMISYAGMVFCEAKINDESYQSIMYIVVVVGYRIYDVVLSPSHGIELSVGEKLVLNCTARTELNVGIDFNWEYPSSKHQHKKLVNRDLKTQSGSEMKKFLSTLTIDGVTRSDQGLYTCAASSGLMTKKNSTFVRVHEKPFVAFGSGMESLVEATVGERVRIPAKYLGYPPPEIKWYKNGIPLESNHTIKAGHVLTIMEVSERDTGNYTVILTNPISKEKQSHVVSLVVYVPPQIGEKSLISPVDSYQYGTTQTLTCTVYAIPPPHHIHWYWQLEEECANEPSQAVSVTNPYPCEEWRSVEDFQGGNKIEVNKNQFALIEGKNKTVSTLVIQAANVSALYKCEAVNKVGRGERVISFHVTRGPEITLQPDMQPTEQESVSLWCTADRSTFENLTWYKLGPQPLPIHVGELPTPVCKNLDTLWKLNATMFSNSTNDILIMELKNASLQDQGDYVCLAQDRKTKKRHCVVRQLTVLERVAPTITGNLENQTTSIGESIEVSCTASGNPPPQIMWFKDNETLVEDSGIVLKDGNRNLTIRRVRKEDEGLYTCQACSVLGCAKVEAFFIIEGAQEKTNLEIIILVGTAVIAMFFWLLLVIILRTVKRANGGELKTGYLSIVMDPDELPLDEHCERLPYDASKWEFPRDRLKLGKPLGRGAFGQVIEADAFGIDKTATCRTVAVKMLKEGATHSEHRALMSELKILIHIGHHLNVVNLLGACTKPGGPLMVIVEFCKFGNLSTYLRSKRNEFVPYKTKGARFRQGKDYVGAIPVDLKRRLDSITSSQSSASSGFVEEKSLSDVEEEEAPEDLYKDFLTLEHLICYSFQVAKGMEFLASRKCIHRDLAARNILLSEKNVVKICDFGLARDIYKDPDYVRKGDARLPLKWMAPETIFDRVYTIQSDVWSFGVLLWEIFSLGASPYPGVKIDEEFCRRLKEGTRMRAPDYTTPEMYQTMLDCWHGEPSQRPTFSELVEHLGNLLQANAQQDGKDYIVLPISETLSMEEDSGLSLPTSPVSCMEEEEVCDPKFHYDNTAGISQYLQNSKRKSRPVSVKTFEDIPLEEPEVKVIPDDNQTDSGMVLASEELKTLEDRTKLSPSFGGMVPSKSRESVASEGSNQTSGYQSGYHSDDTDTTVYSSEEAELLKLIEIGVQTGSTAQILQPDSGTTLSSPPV

| Binder | EC50 of inhibition of VEGF induced DNA synthesis ([3H]-TdR) in HUVEC [1] [nM] | antibody concentration required to inhibit 50% of VEGF-induced mitogenesis of HUVEC [1] [nM] | Kd [2] [nM] | koff [2] [s⁻¹] | kon [2] [M⁻¹ s⁻¹] | koff [3] [s⁻¹] | kon [3] [M⁻¹ s⁻¹] | IC50 [4] [nM] | IC50 [5] [nM] | EC50 [6] [nM] | EC50 (read off the curve) [7] [nM] | phosphorylation of flk-1 (VEGFR-2) by VEGF165 (40 ng/ml), antibody titration [8] | phosphorylation level by densitometry, antibody added with ligand (C) [8, 10] | phosphorylation level by densitometry, antibody prebound (P) [8, 10] | relative apparent affinity [9] [ng/mL] |
| --- | --- | --- | --- | --- | --- | --- | --- | --- | --- | --- | --- | --- | --- | --- | --- |
| anti-KDR (VEGFR-2) single chain antibody scFv p1C11 (scFv, from a related filing, not shown: small tags and cut ends) scFv: QVKLQQSGAELVGSGASVKLSCTTSGFNIKDFYMHWVKQRPEQGLEWIGWIDPENGDSDYAPKFQGKATMTADSSSNTAYLQLSSLTSEDTAVYYCNAYYGDYEGYWGQGTTVTVSSGGGGSGGGGSGGGGSDIELTQSPAIMSASPGEKVTITCSASSSVSYMHWFQQKPGTSPKLWIYSTSNLASGVPARFSGSGSGTSYSLTISRMEAEDAATYYCQQRSSYPFTFGSGTKLEIK | 5 | 6 | 2.1 | 0.00023 | 110000 | 0.000227 | 111000 | 2 | 3 | 0.3 | 1 | – | – | – | – |
| rat anti-mouse flk-1 (VEGFR-2) monoclonal antibody DC-101 (antibody, from another filing, V domains shown) VH: EVQLVETGGGLVQPGNSLKLSCATSGFIFSTTWMNWIRQTPGKRLEWLAQIEDKSNNYFISYSESVKGRFTISRDDSKSSVYLQMNNLKEEDTAIYYCSWKYRSNYYFDYWGQGVMVTVSS VL: DIVLTQSPALAVSLEQRATISCKTSQNVDYYGISYLHWYQQKPGQQPKLLIYEGSNLASGIPARFSGSGSGTDFTLTIDPVEADDIVTYYCQQSKDYPYTFGAGTKLELKR | – | – | – | – | – | – | – | – | – | – | – | > 0.5 µg/mL and < 1 µg/mL | 40 | 6 | 500 |
